Results: patent US20210198347A1 (Chugai, published 2021)

B1: COS0547gg-SG1148 (antibody, human IgG1, kappa, V domains shown)
VH: QSLEESGGRLVTPGTPLTLTCTASGFSLSSYHMDWVRQAPGKGLEWIGIITYTGDTYYATWAKGRFTISKTSSTTVDLKMASLTTEDTATYFCARRQYDAYNVWGPGTLVTVSS
VL: AYDMTQTPASVEVAVGGTVTIKCQASQSINNYLAWYQQKPGQPPKLLIYYASTLASGVPSRFKGSRSGTEFTLTISGVECADAATYYCQHGYYTSSNIDSVFGGGTKVEIKR
B2: COS0499ee-SG1148 (antibody, human IgG1, kappa, V domains shown)
VH: QSLEESGGRLVTPGTPLTLTCTASGFSLSNYNMAWVRQAPGKGLEWIGIIETTTNTYYARWARGRFTISKTSSTTVDLQIASPTTEDTATYFCGRRVSNSHDLWGPGTLVTVSS
VL: AYDMTQTPASVSAAVGGTVTINCQASQTIGGWCAWYQQKPGQPPKLLIYKASTLASGVSSRFKGSGSGTEFALTISDLECDDAATYYCQHGYYTSSTIENTFGGGTKVEIKR
notes: also called COS499; COS499ee(-SG1148)
B3: COS0637cc-SG1148 (antibody, human IgG1, kappa, V domains shown)
VH: QSLEESGGRLVTPGTPLTLTCTASGFSLSAYAMNWVRQAPGKGLEWIGLIYGSGSTFYASWAKGRFTISKTSTTVDLKMTSLTTEDTATYFCARGRSVNYNSDFKLWGPGTLVTVSS
VL: QVLTQTPSSVSAAVGGTVTINCQASQSLHDKKNLAWYQHKPGQRPNLLIYGASTLESGVPSRFKGSGSGTEYTLTISDLECDDAAAYYCQGEFSCSSADCNTFGGGTKVEIKR
B4: COS0448oo-SG1148 (antibody, human IgG1, kappa, V domains shown)
VH: QSVEESGGRLVTPGTPLTLTCTVSGFSLSNYGMIWVRQAPGEGLEYIGFVSGSGSAYYANWVKGRFTISKTSTTVDLKMTSLTTEDTATYFCARGAYNTDSYSYSLYYGMDLWGPGTLVTVSS
VL: QIVMTQTPASVEVAVGGTVTIKCQASQSIYSYLSWYQQKPGQPPKLLIYGASTLASGVPSRFKGSRSGTEFTLTISDLECADAATYYCQSNYATTTTYGTFGGGTKVEIKR
notes: Rabbit B-cell derived variable regions; also called COS448; COS44800(-SG1148)
B5: COS0631gg-SG1148 (antibody, human IgG1, kappa, V domains shown)
VH: QSVEESGGRLVTPGTPLTLTCTVSGFSLSRYSMGWVRQAPGKGLEWIGIIYADGGAYYASWAKGRFTISKTSTTMDLKVTSPTTEDTATYFCARGQFINSNEFFNPWGPGTLVTVSS
VL: QVLTQTASSVSAVVGGTVTINCQASQSLHNNKNLAWYQQKPGQPPRLLIYYASTLASGVSSRFKGSGSGTQFTLTISDLECDDAATYYCAGEFSCSNGDCNAFGGGTKVEIKR

Biological target: T1, Native proenzyme human C1s (Comptech A103) (human, UniProt P09871 16-688)
T1 construct: mature; Bought native protein; also called native human C1s Proenzyme; native human C1s proenzyme protein (CompTech)
T1 sequence (looked up): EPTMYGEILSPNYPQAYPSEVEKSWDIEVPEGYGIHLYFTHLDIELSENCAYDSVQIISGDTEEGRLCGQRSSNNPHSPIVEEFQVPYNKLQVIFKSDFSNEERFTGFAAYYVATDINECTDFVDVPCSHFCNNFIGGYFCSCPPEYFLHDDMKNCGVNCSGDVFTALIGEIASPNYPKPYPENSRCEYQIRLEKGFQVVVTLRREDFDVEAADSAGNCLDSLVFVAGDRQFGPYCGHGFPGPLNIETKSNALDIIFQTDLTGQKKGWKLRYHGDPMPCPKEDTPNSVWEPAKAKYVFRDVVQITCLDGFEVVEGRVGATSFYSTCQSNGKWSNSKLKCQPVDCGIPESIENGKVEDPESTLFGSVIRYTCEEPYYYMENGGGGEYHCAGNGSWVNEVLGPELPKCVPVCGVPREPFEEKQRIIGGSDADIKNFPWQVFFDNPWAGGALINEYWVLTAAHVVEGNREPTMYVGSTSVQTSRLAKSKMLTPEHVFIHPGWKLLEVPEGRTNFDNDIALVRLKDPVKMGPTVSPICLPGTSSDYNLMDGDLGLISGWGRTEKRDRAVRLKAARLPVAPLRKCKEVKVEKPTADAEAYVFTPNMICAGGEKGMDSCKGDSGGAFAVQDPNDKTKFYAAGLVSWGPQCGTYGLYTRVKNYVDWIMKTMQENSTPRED
Assay: SPR (BIACORE T200, 37 degrees C, pH 7.4), antibody captured by protein A/G, C1s 50 nM
Experimental: The binding specificities of the six C1s CUB1-EGF-CUB2 binders were determined at 37 degrees C. using BIACORE® T200 instrument (GE Healthcare). Recombinant Protein A/G (Pierce) was immobilized onto all flow cells of a CM4 sensor chip using an amine coupling kit (GE Healthcare). Antibodies and analytes were prepared in 7(+) buffer (20 mM ACES, 150 mM NaCl, 1.2 mM CaCl₂, 0.05% Tween 20, 0.005% NaN₃, pH 7.4). Each antibody was captured onto the sensor surface by protein A/G. Antibody capture levels were aimed at 100 resonance unit (RU). Native proenzyme human C1s (Comptech A103) (at 50 nM as a monomer) or recombinant human C1s CCP1-CCP2-SP-His (at 100 nM as a monomer) was injected, followed by dissociation. Sensor surface was regenerated each cycle with 10 mM Glycine-HCl pH 1.5. The six C1s CUB1-EGF-CUB2 binders bound to the native proenzyme human C1s, but not recombinant human C1s CCP1-CCP2-SP-His, which is a truncated protein lacking the CUB1-EGF-CUB2 domain.

Binder | binding result
B1 | binds
B2 | binds
B3 | binds
B4 | binds
B5 | binds
